According to US20260207704A1, “STAPLED PEPTIDES AND METHODS THEREOF” (priority 2022, published 2026):
*1 amine or outer side, *2 acyl side, *3 side chain or, on linkers, in order; H or OH if unused. Bridges are numbered along the chain shown (N, C = ends). Primed or numbered codes have the meaning given here. [ ]: non-standard residue; d: D form. B5(4) = 2-amino-2-(pent-4-en-1-yl)hept-6-enoic acid, stapled through each of its two olefin groups with other olefin-containing amino acid residues, O=C(C(CCCC=[*:3])(CCCC=[*:4])N[*:1])[*:2]; PyrS2″ = (S)-3-amino-1-((pent-4-en-1-yloxy)carbonyl)pyrrolidine-3-carboxylic acid (olefin stapling residue), C=CCCCOC(=O)N1CC[C@@](N[*:1])(C(=O)[*:2])C1; PyrS2 = (S)-3-amino-1-((pent-4-en-1-yloxy)carbonyl)pyrrolidine-3-carboxylic acid, olefin staple residue, C=CCCCOC(=O)N1CC[C@@](N[*:1])(C(=O)[*:2])C1; TriAzLys(4) = (S)-2-amino-5-(1H-1,2,3-triazol-1-yl)pentanoic acid, staple through triazole 4-position, O=C([C@H](CCCn1cc([*:3])nn1)N[*:1])[*:2]; TriAzLys = (S)-2-amino-5-(1H-1,2,3-triazol-1-yl)pentanoic acid, stapled through triazole 4-position, O=C([C@H](CCCn1cc([*:3])nn1)N[*:1])[*:2]; PyrS2(5) = (S)-3-amino-1-((pent-4-en-1-yloxy)carbonyl)pyrrolidine-3-carboxylic acid, C=CCCCOC(=O)N1CC[C@@](N[*:1])(C(=O)[*:2])C1; B5″ = 2-amino-2-(pent-4-en-1-yl)hept-6-enoic acid (bis-olefin stapling residue), C=CCCCC(CCCC=C)(N[*:1])C(=O)[*:2]; 2F3MeF(3) = aromatic amino acid residue, Cc1cccc(C[C@H](N[*:1])C(=O)[*:2])c1F; 2F3MeF″ = aromatic residue, Cc1cccc(C[C@H](N[*:1])C(=O)[*:2])c1F; Phe(3-COOH) = N[C@@H](Cc1cccc(C(=O)O)c1)C(=O)O; 2F3MeF = Cc1cccc(C[C@H](N[*:1])C(=O)[*:2])c1F; Abu(4-yl) = O=C([C@H](CC[*:3])N[*:1])[*:2]; Bta = N[C@@H](Cc1csc2ccccc12)C(=O)O; Lys(iPr) = CC(C)NCCCC[C@H](N)C(=O)O; αAllylPro = C=CC[C@@]1(C(=O)O)CCCN1; BztA = aromatic amino acid residue; tBuAla = CC(C)(C)C[C@H](N)C(=O)O; 3Thi = N[C@@H](Cc1ccsc1)C(=O)O; Cha = N[C@@H](CC1CCCCC1)C(=O)O; PyrS2(4) = not defined here; hSer = N[C@@H](CCO)C(=O)O; BztA″ = aromatic residue; Nle = CCCC[C@H](N)C(=O)O; TfeGA = not defined here; GlnR = not defined here; PL3 = not defined here; B5 = not defined here; Aib = CC(C)(N)C(=O)O

Molecular target: beta-catenin (human)
Assay: fluorescence polarization

Chain of beta-catenin (human) (B6V8E6 146-665 limits assumed): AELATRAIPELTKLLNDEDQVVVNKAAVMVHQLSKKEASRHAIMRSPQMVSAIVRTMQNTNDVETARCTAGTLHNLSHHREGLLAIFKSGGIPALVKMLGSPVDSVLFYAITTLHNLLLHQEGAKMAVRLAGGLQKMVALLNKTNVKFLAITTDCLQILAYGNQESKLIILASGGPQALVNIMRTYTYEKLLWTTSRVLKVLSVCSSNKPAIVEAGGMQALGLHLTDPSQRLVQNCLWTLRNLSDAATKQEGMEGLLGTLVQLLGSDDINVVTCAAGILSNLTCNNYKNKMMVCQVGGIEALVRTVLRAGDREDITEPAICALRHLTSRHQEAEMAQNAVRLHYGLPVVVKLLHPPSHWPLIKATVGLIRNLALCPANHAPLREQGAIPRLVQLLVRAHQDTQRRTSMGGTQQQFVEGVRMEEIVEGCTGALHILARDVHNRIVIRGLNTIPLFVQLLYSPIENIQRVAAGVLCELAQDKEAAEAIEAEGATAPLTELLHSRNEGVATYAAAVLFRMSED

Binder | IC50
Ac-[αAllylPro]D[tBuAla][B5(4)]D[Phe(3-COOH)][GlnR]AFL[PyrS2(5)][2F3MeF(3)][BztA][GlnR](diaminobutane)A-NH2 (staple 1-4 (inferred); not fully specified (bridges); printed as Ac-PL3-Asp-Npg-B5-Asp-3COOHF-GlnR-Ala-Phe-Leu-PyrS2-2F3MeF-BztA-[diaminobutane]GlnR-Ala-NH2; reading uncertain) [I-92] | < 50 nM
Ac-[αAllylPro]D[tBuAla][B5]D[Phe(3-COOH)][Aib]AF[TriAzLys(4)][PyrS2][3Thi][Bta][Abu(4-yl)]A-NH2 (triazole 10-14; not fully specified (bridges); printed as Ac-PL3-Asp-Npg-B5-Asp-3COOHF-Aib-Ala-Phe-TriAzLys*3-PyrS2-3Thi-BztA-sAla*3-Ala-NH2; reading uncertain) [I-335] | < 50 nM
Ac-[PL3]D[Cha][B5]D[Phe(3-COOH)][Cha]AFK[PyrS2(4)][2F3MeF][Bta][GlnR]A-NH2 (staple 1-4; bridge 10-14; not fully specified (residue 10); printed as Ac-PL3-Asp-Cha-B5-Asp-3COOHF-Cha-Ala-Phe-Lys*3-PyrS2-2F3MeF-BztA-GlnR*3-Ala-NH2; reading uncertain; also: PyrS2 tied into a staple, partner not placed) [I-103] | < 50 nM
Ac-[αAllylPro]D[tBuAla][B5″][hSer][TfeGA]AAFK[PyrS2″][2F3MeF][Bta][GlnR]A-NH2 (bridge 10-14; not fully specified (bridges); reading uncertain; also: Lys*3 and GlnR*3 marked *3) [I-118] | > 1000 nM
Ac-[PL3]DL[B5(4)]DDAAF[dK][PyrS2″][3Thi][Bta][GlnR]-NH2 (bridge 10-14; not fully specified (bridges); printed as Ac-PL3-Asp-Leu-B5-Asp-Asp-Ala-Ala-Phe-dLys*3-PyrS2-3Thi-BztA-GlnR*3-NH2; reading uncertain) [I-2] | < 50 nM
Ac-[PL3][hSer][tBuAla][B5]D[TfeGA]AAFK[PyrS2(4)][2F3MeF][Bta][GlnR]A-NH2 (staple 1-4; bridge 10-14; reading uncertain; also: PyrS2 tied into a staple, partner not placed) [I-116] | > 1000 nM
Ac-[αAllylPro][hSer][tBuAla][B5]D[Phe(3-COOH)][Nle]AFK[PyrS2″][2F3MeF″][BztA″][GlnR]LS-NH2 (bridge 10-14; not fully specified (bridges); printed as Ac-PL3-Hse-Npg-B5-Asp-3COOHF-nLeu-Ala-Phe-Lys*3-PyrS2-2F3MeF-BztA-GlnR*3-Leu-Ser-NH2; reading uncertain; also: Lys10 and GlnR14 marked *3) [I-146] | > 1000 nM
Ac-[PL3]D[tBuAla][B5]D[Phe(3-COOH)][Cha]AFK[PyrS2(4)][2F3MeF][Bta][GlnR]A-NH2 (staple 1-4; bridge 10-14; not fully specified (residue 10); printed as Ac-PL3-Asp-Npg-B5-Asp-3COOHF-Cha-Ala-Phe-Lys*3-PyrS2-2F3MeF-BztA-GlnR*3-Ala-NH2; reading uncertain; also: PyrS2 tied into a staple, partner not placed) [I-102] | < 50 nM
Ac-[PL3][hSer][tBuAla][B5]D[TfeGA]AAFK[PyrS2(4)][2F3MeF][Bta][GlnR]A-NH2 (staple 1-4; bridge 10-14; reading uncertain; also: PyrS2 tied into a staple, partner not placed) [I-115] | > 1000 nM
Ac-[PL3]D[tBuAla][B5]D[Phe(3-COOH)]AAFK[PyrS2(4)][2F3MeF][Bta][GlnR]L-NH2 (staple 1-4; bridge 10-14; not fully specified (residue 10); printed as Ac-PL3-Asp-Npg-B5-Asp-3COOHF-Ala-Ala-Phe-Lys*3-PyrS2-2F3MeF-BztA-GlnR*3-Leu-NH2; reading uncertain; also: PyrS2 tied into a staple, partner not placed) [I-105] | < 50 nM
Ac-[PL3]D[tBuAla][B5]D[TfeGA]AAFK[PyrS2(4)][2F3MeF][Bta][GlnR]A-NH2 (staple 1-4; bridge 10-14; reading uncertain; also: PyrS2 tied into a staple, partner not placed) [I-112] | < 50 nM

Continued, values first:

IC50 | Binder
< 50 nM | Ac-[PL3]D[tBuAla][B5]D[Phe(3-COOH)][tBuAla]AFK[PyrS2″][2F3MeF(3)][BztA][GlnR]A-NH2 (staple 1-4 (inferred); bridge 10-14; not fully specified (residue 10, bridges); printed as Ac-PL3-Asp-Npg-B5-Asp-3COOHF-Npg-Ala-Phe-Lys*3-PyrS2-2F3MeF-BztA-GlnR*3-Ala-NH2; reading uncertain; also: Lys10 and GlnR14 marked *3) [I-99]
> 1000 nM | Ac-[αAllylPro]N[Cha][B5″]DT[Lys(iPr)]AF[GlnR][PyrS2″]F[Bta]K-NH2 (bridge 10-14; reading uncertain; also: PL3-B5 and PyrS2 links not placed, printed as Ac-PL3-Asn-Cha-B5-Asp-Thr-iPrLys-Ala-Phe-GlnR*3-PyrS2-Phe-BztA-Lys*3-NH2) [I-150]
< 50 nM | Ac-[PL3]D[tBuAla][B5]D[Phe(3-COOH)][tBuAla]AFK[PyrS2(4)][2F3MeF][Bta][GlnR]A-NH2 (staple 1-4; bridge 10-14; not fully specified (residue 10); printed as Ac-PL3-Asp-Npg-B5-Asp-3COOHF-Npg-Ala-Phe-Lys*3-PyrS2-2F3MeF-BztA-GlnR*3-Ala-NH2; reading uncertain; also: PyrS2 tied into a staple, partner not placed) [I-100]
< 50 nM | Ac-[PL3]D[Cha][B5]D[Phe(3-COOH)]AAFK[PyrS2″][2F3MeF(3)][BztA][GlnR]A-NH2 (staple 1-4 (inferred); bridge 10-14; not fully specified (residue 10, bridges); printed as Ac-PL3-Asp-Cha-B5-Asp-3COOHF-Ala-Ala-Phe-Lys*3-PyrS2-2F3MeF-BztA-GlnR*3-Ala-NH2; reading uncertain; also: Lys10 and GlnR14 marked *3) [I-98]
< 50 nM | Ac-[αAllylPro]D[tBuAla][B5″]DDAAF[TriAzLys][PyrS2″][3Thi][Bta][Abu(4-yl)]-NH2 (triazole 10-14; also: PL3-B5 and PyrS2 links not placed) [I-18]
< 50 nM | Ac-[PL3]D[Cha][B5]D[Phe(3-COOH)]AAFK[PyrS2(4)][2F3MeF][Bta][GlnR]L-NH2 (staple 1-4; bridge 10-14; not fully specified (residue 10); printed as Ac-PL3-Asp-Cha-B5-Asp-3COOHF-Ala-Ala-Phe-Lys*3-PyrS2-2F3MeF-BztA-GlnR*3-Leu-NH2; reading uncertain; also: PyrS2 tied into a staple, partner not placed) [I-107]
> 1000 nM | Ac-[αAllylPro][hSer][tBuAla][B5]D[Phe(3-COOH)]AAFK[PyrS2(5)][2F3MeF″][BztA″][GlnR]LS-NH2 (bridge 10-14; not fully specified (bridges); printed as Ac-PL3-Hse-Npg-B5-Asp-3COOHF-Ala-Ala-Phe-Lys*3-PyrS2-2F3MeF-BztA-GlnR*3-Leu-Ser-NH2; reading uncertain; also: Lys10 and GlnR14 marked *3) [I-145]
< 50 nM | Ac-[PL3]N[tBuAla][B5]D[TfeGA]AAFK[PyrS2(4)][2F3MeF][Bta][GlnR]A-NH2 (staple 1-4; bridge 10-14; reading uncertain; also: PyrS2 tied into a staple, partner not placed) [I-113]
> 1000 nM | Ac-[αAllylPro]D[tBuAla][B5″][hSer][TfeGA]AAFK[PyrS2″][2F3MeF][Bta][GlnR]A-NH2 (bridge 10-14; not fully specified (bridges); reading uncertain; also: Lys*3 and GlnR*3 marked *3) [I-119]
< 50 nM | Ac-[PL3]D[tBuAla][B5]D[Phe(3-COOH)][tBuAla]AFK[PyrS2(4)][2F3MeF][Bta][GlnR]L-NH2 (staple 1-4; bridge 10-14; not fully specified (residue 10); printed as Ac-PL3-Asp-Npg-B5-Asp-3COOHF-Npg-Ala-Phe-Lys*3-PyrS2-2F3MeF-BztA-GlnR*3-Leu-NH2; reading uncertain; also: PyrS2 tied into a staple, partner not placed) [I-108]
